Measurements: paper PMC11681983 (Biochemistry Research International, 2024)

Key:
Conditions in all cases: both partners purified
IL-17A [1] = molecular target: T1, IL-17A (human, UniProt Q16552); test: ELISA; direct binding ELISA to IL-17A or VEGF, measured in duplicate, n = 2; who was coated is not told
T1 construct: IL-17A

IL-17A [2] = molecular target: T1, IL-17A; test: ELISA; ELISA-based assay of blocking the interaction of IL-17A with IL-17RA, in duplicate, n = 3
IL-17A [3] = molecular target: T1, IL-17A; test: SPR; Biacore, n = 3
VEGF = molecular target: T2, VEGF (UniProt P15692 1-395); test: ELISA; direct binding ELISA to IL-17A or VEGF, measured in duplicate, n = 2; who was coated is not told
T2 construct: vascular endothelial growth factor (VEGF); Probably VEGF165 (surmised); also called vascular endothelial growth factor
T2 sequence (P15692 whole entry): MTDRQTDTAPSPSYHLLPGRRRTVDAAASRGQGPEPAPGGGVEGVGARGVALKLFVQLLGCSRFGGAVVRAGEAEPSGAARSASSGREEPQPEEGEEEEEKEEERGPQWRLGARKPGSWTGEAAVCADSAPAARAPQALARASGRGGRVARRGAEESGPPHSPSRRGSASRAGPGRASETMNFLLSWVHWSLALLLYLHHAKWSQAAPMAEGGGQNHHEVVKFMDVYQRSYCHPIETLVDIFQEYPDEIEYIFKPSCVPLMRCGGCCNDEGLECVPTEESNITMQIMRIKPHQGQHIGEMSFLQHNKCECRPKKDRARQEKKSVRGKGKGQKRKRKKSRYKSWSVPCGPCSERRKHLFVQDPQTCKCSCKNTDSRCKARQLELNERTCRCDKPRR

T1 sequence (Q16552 24-155): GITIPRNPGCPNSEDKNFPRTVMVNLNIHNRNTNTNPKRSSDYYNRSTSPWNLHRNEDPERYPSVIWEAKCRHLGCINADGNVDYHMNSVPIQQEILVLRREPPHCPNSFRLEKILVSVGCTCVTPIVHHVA

| EC50 (IL-17A [1]) [nM] | IC50 (IL-17A [2]) [nM] | Kd (IL-17A [3]) [nM] | EC50 (VEGF) [nM] | Binder |
| --- | --- | --- | --- | --- |
| 0.05 | 2.77 | 0.0184 | – | bispecific fusion protein 17V05 (bispecific antibody, V domains shown, heavy chain of the clinical stage anti-IL-17A mAb 608 (Sunshine Guojian Pharmaceutical); linker, printed as (G4S) x 3; light chain of the anti-IL-17A mAb 608; Variant of 17V01 with M464A in D2; Two copies of D2, one at the C-terminus of each heavy chain of 608; also called bispecific anti-IL17/VEGF fusion trap; source: 293HEK cells, one-step purification with protein A chromatography (told of the …)) VH: EVQLVESGGGLVQPGGSLRLSCAASGFTFSSFDMSWGRQAPGKRLEWVAFMSSGGSTYYPDSVKGRFTISRDNSKNTLYLQMNSLRAEDTAVYYCARGERYGSYWGQGTLVTVSS VL: DIQMTQSPSSLSASVGDRVTITCKASDHINNWLAWYQQKPGKAPKLLISGATSLETGVPSRFSGSGSGTDYTLTISSLQPEDFATYYCQQYWSTPFTFGSGTKLEIK |
| – | – | – | 0.39 | D2-Fc, a fusion protein with D2 fused to the N-terminus of an Fc (Fc fusion, Limits are not printed. VEGFR1 D2 is taken as S129-D231, the aflibercept / Flt1 D2 convention. The Fc carrier is omitted; two copies assume an Fc dimer. The printed clip site M464/Y465 (fusion …)) SDTGRPFVEMYSEIPEIIHMTEGRELVIPCRVTSPNITVTLKKFPLDTLIPDGKRIIWDSRKGFIISNATYKEIGLLTCEATVNGHLYKTNYLTHRQTNTIID |
